Experimental data reported in paper PMC3792054, “A Remote Palm Domain Residue of RB69 DNA Polymerase Is Critical for Enzyme Activity and Influences the Conformation of the Active Site”.

B1: 20*/26-mer primer-template (dsDNA)
DNA 1: AGCTACGCGGCTGTCATAAG
DNA 2: TTGCGTCTTATGACAGCCGCGTAGCT
B2: 13/18-mer primer-template (crystal) (dsDNA)
DNA 1: GCGGACTGCTTAC
DNA 2: TCACGTAAGCAGTCCGCG

How the values were obtained:
RB69 Pol+Exo- = biological target: T1, RB69 Pol+Exo- (bacteriophage RB69, UniProt Q38087 1-903, D222A;D327A); assay: EMSA; binds tighter than Pol+Exo+; value in Table 2/Figure 2E not in material; EMSA: 50 nM DNA, 7.5-500 nM Exo+ or 2.5-400 nM Exo- polymerase, native 6% PAGE; buffer, pH and temperature as in ref. 16; conditions: protein: recombinant; label: 5'-32P on primer (20-mer); 5' overhang 6 nt on template; other end blunt
T1 sequence: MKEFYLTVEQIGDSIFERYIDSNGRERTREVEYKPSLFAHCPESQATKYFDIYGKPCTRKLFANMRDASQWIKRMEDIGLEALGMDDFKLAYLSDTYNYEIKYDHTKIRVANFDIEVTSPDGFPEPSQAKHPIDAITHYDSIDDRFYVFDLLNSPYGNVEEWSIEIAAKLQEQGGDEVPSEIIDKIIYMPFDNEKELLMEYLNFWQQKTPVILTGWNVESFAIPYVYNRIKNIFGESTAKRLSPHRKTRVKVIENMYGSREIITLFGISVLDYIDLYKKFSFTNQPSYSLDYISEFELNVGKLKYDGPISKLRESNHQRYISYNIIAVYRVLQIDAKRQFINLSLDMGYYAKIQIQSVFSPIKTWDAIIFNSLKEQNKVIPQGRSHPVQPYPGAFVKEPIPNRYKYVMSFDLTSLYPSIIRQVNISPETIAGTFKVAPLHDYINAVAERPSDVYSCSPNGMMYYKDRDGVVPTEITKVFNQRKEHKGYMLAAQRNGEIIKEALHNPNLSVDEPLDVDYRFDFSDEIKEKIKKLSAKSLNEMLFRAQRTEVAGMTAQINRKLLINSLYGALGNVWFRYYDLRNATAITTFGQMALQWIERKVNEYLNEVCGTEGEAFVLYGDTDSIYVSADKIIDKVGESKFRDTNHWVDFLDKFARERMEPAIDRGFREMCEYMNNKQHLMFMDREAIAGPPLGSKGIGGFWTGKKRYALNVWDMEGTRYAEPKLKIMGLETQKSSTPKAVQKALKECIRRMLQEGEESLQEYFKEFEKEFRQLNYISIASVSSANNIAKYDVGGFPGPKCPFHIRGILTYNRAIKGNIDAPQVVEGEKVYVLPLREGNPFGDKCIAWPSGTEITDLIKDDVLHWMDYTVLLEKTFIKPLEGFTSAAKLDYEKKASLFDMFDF

[1] = biological target: T2, RB69 DNA polymerase Pol+Exo+ (wild type gp43) (bacteriophage RB69, UniProt Q38087 1-903); assay: EMSA; apparent Kd; EMSA: 50 nM DNA, 7.5-500 nM Exo+ or 2.5-400 nM Exo- polymerase, native 6% PAGE; buffer, pH and temperature as in ref. 16; conditions: protein: recombinant; label: 5'-32P on primer (20-mer); 5' overhang 6 nt on template; other end blunt
T2 sequence: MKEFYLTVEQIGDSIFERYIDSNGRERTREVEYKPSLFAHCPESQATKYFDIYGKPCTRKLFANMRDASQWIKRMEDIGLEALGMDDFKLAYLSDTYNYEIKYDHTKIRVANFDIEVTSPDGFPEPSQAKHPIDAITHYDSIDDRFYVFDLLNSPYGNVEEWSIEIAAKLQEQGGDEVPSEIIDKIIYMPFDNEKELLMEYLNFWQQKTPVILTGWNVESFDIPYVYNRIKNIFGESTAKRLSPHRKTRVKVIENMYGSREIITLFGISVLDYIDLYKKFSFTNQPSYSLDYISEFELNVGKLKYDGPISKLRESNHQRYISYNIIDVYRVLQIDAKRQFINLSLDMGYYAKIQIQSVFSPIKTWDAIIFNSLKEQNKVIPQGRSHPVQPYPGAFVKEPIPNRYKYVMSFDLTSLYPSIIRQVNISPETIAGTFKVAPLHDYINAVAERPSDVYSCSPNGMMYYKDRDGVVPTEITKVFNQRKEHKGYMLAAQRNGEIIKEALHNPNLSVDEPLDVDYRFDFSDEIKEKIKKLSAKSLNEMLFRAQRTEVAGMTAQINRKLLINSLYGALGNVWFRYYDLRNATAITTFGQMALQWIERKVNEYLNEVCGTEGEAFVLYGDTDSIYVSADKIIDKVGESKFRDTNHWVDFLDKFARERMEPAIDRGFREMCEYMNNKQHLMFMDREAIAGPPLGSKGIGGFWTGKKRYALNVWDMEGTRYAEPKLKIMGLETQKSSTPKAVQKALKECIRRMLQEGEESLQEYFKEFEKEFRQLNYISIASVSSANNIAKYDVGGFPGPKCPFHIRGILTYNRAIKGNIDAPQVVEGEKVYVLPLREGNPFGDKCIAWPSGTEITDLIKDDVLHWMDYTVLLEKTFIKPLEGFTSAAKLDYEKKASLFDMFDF

RB69 PolD714A Exo+ = biological target: T3, RB69 PolD714A Exo+ (bacteriophage RB69, UniProt Q38087 1-903, D714A); assay: as above; conditions: protein: recombinant; label: 5'-32P on primer (20-mer); 5' overhang 6 nt on template; other end blunt
T3 sequence: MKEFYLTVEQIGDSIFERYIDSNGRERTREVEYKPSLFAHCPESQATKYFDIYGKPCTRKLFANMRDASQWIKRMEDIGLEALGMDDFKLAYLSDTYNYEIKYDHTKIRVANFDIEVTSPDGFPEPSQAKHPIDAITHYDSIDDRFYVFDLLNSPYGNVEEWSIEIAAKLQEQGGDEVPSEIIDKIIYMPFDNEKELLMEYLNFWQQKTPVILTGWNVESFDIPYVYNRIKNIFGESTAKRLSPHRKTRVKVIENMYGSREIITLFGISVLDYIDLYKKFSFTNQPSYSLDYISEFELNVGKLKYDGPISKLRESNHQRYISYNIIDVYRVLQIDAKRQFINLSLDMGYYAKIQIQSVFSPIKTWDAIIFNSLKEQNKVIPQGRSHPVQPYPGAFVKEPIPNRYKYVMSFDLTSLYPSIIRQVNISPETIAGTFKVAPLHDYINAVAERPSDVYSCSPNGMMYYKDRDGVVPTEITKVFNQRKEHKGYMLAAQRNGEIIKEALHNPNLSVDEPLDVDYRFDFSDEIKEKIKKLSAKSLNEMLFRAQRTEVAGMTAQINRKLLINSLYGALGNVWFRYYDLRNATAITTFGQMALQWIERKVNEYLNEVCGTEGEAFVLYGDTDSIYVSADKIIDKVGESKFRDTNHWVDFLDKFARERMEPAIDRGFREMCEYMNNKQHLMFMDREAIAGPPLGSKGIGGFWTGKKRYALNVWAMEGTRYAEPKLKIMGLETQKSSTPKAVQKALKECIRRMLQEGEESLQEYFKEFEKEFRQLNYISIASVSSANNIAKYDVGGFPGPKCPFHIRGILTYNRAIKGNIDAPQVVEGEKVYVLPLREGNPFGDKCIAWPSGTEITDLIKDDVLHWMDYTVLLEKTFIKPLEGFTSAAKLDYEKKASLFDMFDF

RB69 PolD714A Exo- = biological target: T4, RB69 PolD714A Exo- (bacteriophage RB69, UniProt Q38087 1-903, D222A;D327A;D714A); assay: EMSA; almost same affinity as Pol+Exo-; value in Table 2/Figure 2E not in material; EMSA: 50 nM DNA, 7.5-500 nM Exo+ or 2.5-400 nM Exo- polymerase, native 6% PAGE; buffer, pH and temperature as in ref. 16; conditions: protein: recombinant; label: 5'-32P on primer (20-mer); 5' overhang 6 nt on template; other end blunt
T4 sequence: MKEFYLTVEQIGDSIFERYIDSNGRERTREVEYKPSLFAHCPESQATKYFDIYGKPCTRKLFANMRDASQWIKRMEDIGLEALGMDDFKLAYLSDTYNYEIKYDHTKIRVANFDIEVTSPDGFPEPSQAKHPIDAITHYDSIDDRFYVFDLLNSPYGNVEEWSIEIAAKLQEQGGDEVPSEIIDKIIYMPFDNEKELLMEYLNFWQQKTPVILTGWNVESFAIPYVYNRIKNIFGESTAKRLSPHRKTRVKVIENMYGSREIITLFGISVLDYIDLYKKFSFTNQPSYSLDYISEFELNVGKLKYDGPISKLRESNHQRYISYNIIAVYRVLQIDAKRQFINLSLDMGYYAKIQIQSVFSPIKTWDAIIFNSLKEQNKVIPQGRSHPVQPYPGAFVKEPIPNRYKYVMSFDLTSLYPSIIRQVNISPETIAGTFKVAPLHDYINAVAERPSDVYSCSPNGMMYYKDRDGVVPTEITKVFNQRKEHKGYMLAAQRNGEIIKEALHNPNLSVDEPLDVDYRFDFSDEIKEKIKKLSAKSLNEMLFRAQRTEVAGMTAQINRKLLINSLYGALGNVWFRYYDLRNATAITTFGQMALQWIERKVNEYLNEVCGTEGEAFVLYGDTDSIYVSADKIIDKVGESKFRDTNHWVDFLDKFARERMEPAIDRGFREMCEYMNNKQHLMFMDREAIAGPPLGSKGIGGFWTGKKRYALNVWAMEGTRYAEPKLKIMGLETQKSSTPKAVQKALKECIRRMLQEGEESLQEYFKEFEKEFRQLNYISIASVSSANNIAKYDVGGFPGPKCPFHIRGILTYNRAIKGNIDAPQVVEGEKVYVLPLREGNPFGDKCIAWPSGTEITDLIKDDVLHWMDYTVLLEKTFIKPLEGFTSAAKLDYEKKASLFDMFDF

RB69 PolY567A/D714A Exo- = biological target: T5, RB69 PolY567A/D714A Exo- (bacteriophage RB69, UniProt Q38087 1-903, D222A;D327A;Y567A;D714A); assay: X-ray crystallography; dGpnpp, Ca2+, Na+; ternary complex I, 2.30 A; conditions: protein: recombinant; template 5' overhang 4 nt and 3' overhang 1 nt
T5 sequence: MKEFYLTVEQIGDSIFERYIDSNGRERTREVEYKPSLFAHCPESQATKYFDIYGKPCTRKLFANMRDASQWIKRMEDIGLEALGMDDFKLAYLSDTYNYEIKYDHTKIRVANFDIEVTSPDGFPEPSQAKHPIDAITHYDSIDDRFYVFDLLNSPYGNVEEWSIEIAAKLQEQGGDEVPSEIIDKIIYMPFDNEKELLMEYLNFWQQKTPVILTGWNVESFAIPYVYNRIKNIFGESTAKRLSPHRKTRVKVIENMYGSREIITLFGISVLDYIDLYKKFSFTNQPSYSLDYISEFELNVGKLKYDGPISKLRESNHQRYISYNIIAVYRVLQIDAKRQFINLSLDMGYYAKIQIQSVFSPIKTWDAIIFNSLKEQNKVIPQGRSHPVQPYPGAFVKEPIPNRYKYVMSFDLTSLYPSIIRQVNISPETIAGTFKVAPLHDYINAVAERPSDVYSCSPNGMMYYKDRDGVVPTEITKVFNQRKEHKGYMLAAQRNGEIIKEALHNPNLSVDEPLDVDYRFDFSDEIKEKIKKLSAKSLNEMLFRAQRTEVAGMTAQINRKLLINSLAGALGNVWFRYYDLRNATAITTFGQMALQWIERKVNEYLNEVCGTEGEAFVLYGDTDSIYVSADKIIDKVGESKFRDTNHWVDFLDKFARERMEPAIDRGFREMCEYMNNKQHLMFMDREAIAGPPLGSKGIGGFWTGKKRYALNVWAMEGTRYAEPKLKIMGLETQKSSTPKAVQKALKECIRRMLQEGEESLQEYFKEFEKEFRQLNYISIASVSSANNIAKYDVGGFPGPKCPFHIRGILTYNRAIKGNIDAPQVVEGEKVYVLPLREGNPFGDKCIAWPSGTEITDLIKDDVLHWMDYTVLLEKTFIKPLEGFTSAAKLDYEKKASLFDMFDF

| Binder | binding result (RB69 Pol+Exo-) | Kd [1] | Kd (RB69 PolD714A Exo+) | binding result (RB69 PolD714A Exo-) | binding result (RB69 PolY567A/D714A Exo-) |
| --- | --- | --- | --- | --- | --- |
| B1 | binds | 176 nM | 141 nM | binds |  |
| B2 |  |  |  |  | binds |
